The record followed here is the supplement of paper PMC12042874.

± gives the uncertainty stated by the source.

The first series is described as follows: amyloid nucleation score (Sup35N fusion, yeast selection) (log enrichment); library NNK2; higher = more nucleation; inactive = no reads after selection. The procedure, abridged: (§1)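 Growth for 7 days at 30°C on medium lacking adenine and uracil followed a 24-hour induction with 100 μM copper sulfate of psi-negative yeast expressing peptides of 20 random codons fused to Sup35N. Input and output plasmid inserts were sequenced with Illumina, and sequences with under 100 input reads were excluded. Nucleation score is the DiMSum log enrichment of output over input reads, centred on the mode score of non-aggregating sequences.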
EFRTAFLVI: the amyloid nucleation score came to 0.138 ± 1.1.

Consider LQVTPIIPYCVSELYMYGGM, for which the amyloid nucleation score is -0.097 ± 0.79.

As for QLGRYLCHTIFKHRLYICTW, the amyloid nucleation score was 0.113 ± 1.1.

Regarding PRLGWHVLLVQIAVG, the amyloid nucleation score was found to be 2.94 ± 0.085.

On to GLVVTSNPSDMSVMELCLWF, for which the amyloid nucleation score is -0.347 ± 0.3.

As for FTSVRMCCILTLGISGSVRA, the amyloid nucleation score result was “inactive”.

Consider HGRKNFSVGVVVVLWLRLFV, for which the amyloid nucleation score stood at 5.63 ± 0.081.

As to LCAWDWSGTRVR, the amyloid nucleation score is 0.903 ± 0.67.

Regarding FAYKNRNM, the amyloid nucleation score is -0.307 ± 0.41.

On to IDYQSGMPWVSMRMILKQ, for which the amyloid nucleation score was found to be 0.158 ± 0.46.

VEFIVSWHGPAKRYPYATTL came in with an amyloid nucleation score of 0.629 ± 0.34.

With MVLYKSRNRLSNYHRLAEST, the amyloid nucleation score is -0.326 ± 1.1.

CSSRNILDWKFVFFVCYFT returned an amyloid nucleation score of 3.41 ± 0.12.

As for CYSLYLRS, the amyloid nucleation score is -0.018 ± 1.1.

With YIRLHYGGVRRKVFTTILVI, the amyloid nucleation score was -0.26 ± 0.45.

SDLRRCM returned an amyloid nucleation score of 0.277 ± 0.21.

FLARLI came in with an amyloid nucleation score of 0.45 ± 0.74.

With IIKLGESNPKSPFGTLYYGF, the amyloid nucleation score was -0.213 ± 1.1.

In the case of STELFLS, the amyloid nucleation score was -0.251 ± 0.28.

For VICRGVHSHSLGWGSCITCS, the amyloid nucleation score was -0.98 ± 0.48.

With VYYWHEYFIDWY, the amyloid nucleation score is -1.27 ± 1.1.

As for NNKYWWDVLYYNSTLLARVN, the amyloid nucleation score is -0.225 ± 0.48.

As to GSGNT, the amyloid nucleation score came to 0.444 ± 0.56.

In the case of ITHMLLTGIPTQLSRV, the amyloid nucleation score was -0.621 ± 0.74.

Take MQNANLIQTFEGYIYPMDIQ: the amyloid nucleation score is 0.433 ± 0.74.

As for GSCNVMGRCRIFGLGFWGIV, the amyloid nucleation score entry is “inactive”.

Take ELILFITYTCIFWADCGRLY: the amyloid nucleation score was -2.12 ± 1.1.

Regarding PICESWHFSLIVLMLFLNWE, the amyloid nucleation score result is “inactive”.

For the substance GIFCSVGMLTVCLLVRDKLV, the amyloid nucleation score entry is “inactive”.

Another series can be described thus: amyloid nucleation score (Sup35N fusion, yeast selection) (log enrichment); library NNK1; higher = more nucleation; inactive = no reads after selection. The procedure, abridged:
as §1
Consider SLITGIRRSGMAICLDLWAG, for which the amyloid nucleation score was -1.21 ± 2.7.

Consider GSRYLGTPFRDIMLHVAIRW, for which the amyloid nucleation score worked out at 1.08 ± 0.57.

VFKFKTM showed an amyloid nucleation score of 1.24 ± 0.81.

Consider LWLAVSSVNCHSRHLLVWVT, for which the amyloid nucleation score result is “inactive”.

For SSVFKRMWPLLFVIPRQMH, the amyloid nucleation score worked out at 0.02 ± 0.43.

Regarding YGKWWWVYRKTSVRRGDGAG, the amyloid nucleation score was 0.49 ± 0.54.

In the case of PGVNKVHLYKESIIYLLAVS, the amyloid nucleation score result was “inactive”.

As for SWYLMIKVIETVSGVTGWVG, the amyloid nucleation score came out at 2.39 ± 0.12.

As for KSAYVANRGCRRLYGVHNKM, the amyloid nucleation score is -0.647 ± 0.71.

MDALMCYIFFKFE showed an amyloid nucleation score of 4.89 ± 0.064.

In the case of VSCCNSQTSQLMDFGNKVSP, the amyloid nucleation score came out at 0.349 ± 0.25.

VLCGNPLFRFVLGWRFCVWG yielded an amyloid nucleation score of 0.335 ± 1.1.

KKGLSKMVKPVYSCLN: the amyloid nucleation score is -1 ± 1.6.

As for PLRSRSGVSL, the amyloid nucleation score stood at 1.09 ± 0.62.

Regarding PAATNAWGWRVPDPGSMIPS, the amyloid nucleation score was -0.3 ± 0.42.

Take WGQFYVLTSVLHYINQWH: the amyloid nucleation score is -2.58 ± 2.7.

Regarding VMSFILYLSMLCGARDSQRH, the amyloid nucleation score worked out at 2.89 ± 0.14.

RYCNKTFSTLSPVHLF yielded an amyloid nucleation score of 1.11 ± 0.97.

SCMTPMYRCSILLLA: the amyloid nucleation score is -0.306 ± 0.42.

As to FEKRALVSDSFYCNGVSRV, the amyloid nucleation score turned out to be 0.082 ± 0.24.

VFPDASSMRVRGGIDTAQEL: the amyloid nucleation score came out at 0.037 ± 0.46.

For YTSTIKYLVYNN, the amyloid nucleation score was -1.08 ± 0.94.

For the substance NGYFGAEDFLIVWIALRKKW, the amyloid nucleation score turned out to be 0.5 ± 0.9.

Take VKRKGAKISWQGAILRASVV: the amyloid nucleation score is -0.963 ± 0.7.

Turning to MLLRRKNIAGGYMVLEVGLS, the amyloid nucleation score is -0.1 ± 0.31.

Consider FQAGREKSCCAYEVGDGCLV, for which the amyloid nucleation score was -1.16 ± 2.4.

NLFLIDMNVWRLVVGGRQDW gave an amyloid nucleation score of 4.63 ± 0.073.

As for SYSEFSVEGFKGHVGAYGG, the amyloid nucleation score was -0.136 ± 0.29.

LGCVVHDCYKVVDGIMSYML registered an amyloid nucleation score of 1.69 ± 0.41.

As for NFAWYNSTQFITTCRVTYSE, the amyloid nucleation score was 1.86 ± 0.17.

For the substance RQIVEELTSGIVGSLEV, the amyloid nucleation score was -0.48 ± 0.57.

As for HARTSRVRNDSSRAALNARW, the amyloid nucleation score is -0.392 ± 0.36.

LSQFD showed an amyloid nucleation score of 1.17 ± 0.41.

On to ATQRKDIA, for which the amyloid nucleation score result is “inactive”.

Regarding FRTHD, the amyloid nucleation score stood at 0.351 ± 0.97.

As for SLQTTWLKNLGDLSSSREAS, the amyloid nucleation score was -0.121 ± 0.73.

TFEALLTVDSYYSFSLVP came in with an amyloid nucleation score of 1.21 ± 0.4.

For QDGPIIFWDMVYFSFYFKH, the amyloid nucleation score was -0.925 ± 1.2.

For the substance GYFCGMDLCTKEGLTHYEY, the amyloid nucleation score was -0.736 ± 0.72.

In turn, ISTRQMFVYLRVHCFIDAVE displayed an amyloid nucleation score of 0.043 ± 0.48.

Regarding LLYYASVLRMKGTECPDGGD, the amyloid nucleation score was -0.856 ± 2.4.

In the case of FQVCLVLSAHVRPQRYFKSW, the amyloid nucleation score is -0.429 ± 0.8.

HAGLQRALTPQIRLFSGLAS: the amyloid nucleation score is -0.268 ± 1.4.

Turning to SGRLVSRGTKHNQSSRCE, the amyloid nucleation score is -0.232 ± 0.9.

For the substance LFNSYIAVGVKKTSSEVMQR, the amyloid nucleation score was found to be 0.385 ± 0.55.

Consider FLALR, for which the amyloid nucleation score is -0.249 ± 0.61.

Regarding IPMPLCCVIPPWFTTFFVNQ, the amyloid nucleation score came out at 4.81 ± 0.092.

As to LCGSVRFRTGLECKQPSSCI, the amyloid nucleation score was -1.02 ± 2.7.

As to LMKYWYDVHRNESGITSNNI, the amyloid nucleation score was -1.26 ± 0.42.

Turning to YFSDIAMWHSEIVR, the amyloid nucleation score is -0.605 ± 0.73.

On to SSMVVVGRRNLSDWKEYYPM, for which the amyloid nucleation score is -0.283 ± 0.45.

TCRFIGEYLRIRYT yielded an amyloid nucleation score of 0.367 ± 0.58.

As to IYFFIPFSPVGDTDRSFWGY, the amyloid nucleation score is -0.059 ± 0.98.

With SACFYTATVFFMYNSFGSNV, the amyloid nucleation score worked out at 5.611 ± 0.055.

On to GNSHMFIIAYSTYMLYTQTL, for which the amyloid nucleation score was 0.845 ± 0.55.

For the substance PFLFVEIYDNGGSW, the amyloid nucleation score was found to be 1.36 ± 0.37.

ILYTCSSQSASFTGLWTSGL had an amyloid nucleation score of 2.03 ± 0.16.

On to LGTGCA, for which the amyloid nucleation score is -0.507 ± 0.83.

Take GIMSRDGKICMVSV: the amyloid nucleation score was -0.091 ± 0.81.

The substance ERYPCDALDVDLRLTLCRKG showed an amyloid nucleation score of 0.222 ± 0.48.

On to YRAKSSEGL, for which the amyloid nucleation score is -0.631 ± 0.71.

The substance HDLVKVFSFCVWP yielded an amyloid nucleation score of 3.02 ± 0.19.

DDLACRSQ: the amyloid nucleation score was 0.614 ± 0.27.

In turn, HILGPLIRSMMIFSCLVSVV yielded an amyloid nucleation score of 1.29 ± 0.36.

As for LTQWPGEGKV, the amyloid nucleation score is -0.303 ± 0.8.

As to VCVLSGRK, the amyloid nucleation score was -0.416 ± 0.38.

In the case of VLRIDSPLSMILFEVVRCEQ, the amyloid nucleation score is -0.322 ± 0.31.

Regarding VVWYLMVFWPCDSLSPMSRS, the amyloid nucleation score worked out at 0.559 ± 0.4.

With NRPHFKGNQCPQDIS, the amyloid nucleation score is -0.217 ± 0.22.

With VRMGQDRHIISTKLTVSREL, the amyloid nucleation score is -1.22 ± 2.7.

As to YNIALCINSQVRESRRPVGV, the amyloid nucleation score came to 5.24 ± 0.072.

In the case of YEFVRRDHVPFRLGMSNPED, the amyloid nucleation score amounted to 1.76 ± 0.53.

With AIYIVVEI, the amyloid nucleation score is -0.764 ± 1.2.

Regarding DDVYSRYVNEGLGWCFIVYL, the amyloid nucleation score result is “inactive”.
